*1 amine or outer side, *2 acyl side, *3 side chain or, on linkers, in order; H or OH if unused. Bridges are numbered along the chain shown (N, C = ends). Where no end group is shown, it is not given here. [ ]: non-standard residue; d: D form. The star is where a group is joined. Phe(4-(2-(Boc)aminoethoxy)) = phenylalanine with 4-(2-(Boc-amino)ethoxy) on the ring, CC(C)(C)OC(=O)NCCOc1ccc(C[C@H](N[*:1])C(=O)[*:2])cc1; Phe(3,5-F2) = N[C@@H](Cc1cc(F)cc(F)c1)C(=O)O; 2Nal = N[C@@H](Cc1ccc2ccccc2c1)C(=O)O; AEF = NCCOc1ccc(C[C@H](N)C(=O)O)cc1; αMeY = C[C@](N)(Cc1ccc(O)cc1)C(=O)O; Cyclopropanecarbonyl = O=C(C1CC1)*; αMeF = C[C@](N)(Cc1ccccc1)C(=O)O; αMeE = C[C@](N)(CCC(=O)O)C(=O)O; Pen = CC(C)(S)[C@H](N)C(=O)O; αMeK = C[C@](N)(CCCCN)C(=O)O; αMeC = C[C@](N)(CS)C(=O)O; Ac6c = NC1(C(=O)O)CCCCC1; Thp = NC1(C(=O)O)CCOCC1; Abu = CC[C@H](N)C(=O)O; Hexanoyl = CCCCCC(=O)*; Aib = CC(C)(N)C(=O)O; Propionyl = CCC(=O)*; Butyryl = CCCC(=O)*; Propyl = CCC*
T1: human IL-23R (interleukin-23 receptor) (human, UniProt Q5VWK5 24-629)
T1 sequence (looked up): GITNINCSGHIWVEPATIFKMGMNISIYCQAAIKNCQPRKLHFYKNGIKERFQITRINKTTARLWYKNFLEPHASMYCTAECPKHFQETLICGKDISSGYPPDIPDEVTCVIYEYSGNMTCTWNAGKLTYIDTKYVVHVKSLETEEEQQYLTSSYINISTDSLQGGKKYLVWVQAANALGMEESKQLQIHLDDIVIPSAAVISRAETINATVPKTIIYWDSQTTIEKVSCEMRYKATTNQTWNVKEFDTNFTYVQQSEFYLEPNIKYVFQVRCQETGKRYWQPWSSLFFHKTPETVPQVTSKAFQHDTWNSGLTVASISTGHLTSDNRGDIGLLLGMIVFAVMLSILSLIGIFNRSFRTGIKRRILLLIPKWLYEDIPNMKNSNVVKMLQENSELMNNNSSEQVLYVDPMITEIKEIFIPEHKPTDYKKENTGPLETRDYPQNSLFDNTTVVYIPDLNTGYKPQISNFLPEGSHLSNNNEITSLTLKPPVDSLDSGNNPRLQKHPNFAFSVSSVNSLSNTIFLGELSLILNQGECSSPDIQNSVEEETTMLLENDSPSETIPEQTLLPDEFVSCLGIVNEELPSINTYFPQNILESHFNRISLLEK

B1: Compound No. 40 (peptide)
peptide: Ac-[dR]CQTWQ[Pen][AEF][2Nal][Ac6c][αMeE]N[αMeF]-NH2
modifications: disulfide 2-7
SMILES: CC(=O)N[C@H](CCCNC(=N)N)C(=O)N[C@H]1CSSC(C)(C)[C@@H](C(=O)N[C@@H](Cc2ccc(OCCN)cc2)C(=O)N[C@@H](Cc2ccc3ccccc3c2)C(=O)NC2(C(=O)N[C@@](C)(CCC(=O)O)C(=O)N[C@@H](CC(N)=O)C(=O)N[C@@](C)(Cc3ccccc3)C(N)=O)CCCCC2)NC(=O)[C@H](CCC(N)=O)NC(=O)[C@H](Cc2c[nH]c3ccccc23)NC(=O)[C@H]([C@@H](C)O)NC(=O)[C@H](CCC(N)=O)NC1=O
B2: Compound No. 51 (peptide)
peptide: Ac-[dR][Pen]QTWQ[Pen][AEF][2Nal][Thp]K(Cyclopropanecarbonyl)N[Thp]-NH2
modifications: disulfide 2-7
SMILES: CC(=O)N[C@H](CCCNC(=N)N)C(=O)N[C@@H]1C(=O)N[C@@H](CCC(N)=O)C(=O)N[C@@H]([C@@H](C)O)C(=O)N[C@@H](Cc2c[nH]c3ccccc23)C(=O)N[C@@H](CCC(N)=O)C(=O)N[C@H](C(=O)N[C@@H](Cc2ccc(OCCN)cc2)C(=O)N[C@@H](Cc2ccc3ccccc3c2)C(=O)NC2(C(=O)N[C@@H](CCCCNC(=O)C3CC3)C(=O)N[C@@H](CC(N)=O)C(=O)NC3(C(N)=O)CCOCC3)CCOCC2)C(C)(C)SSC1(C)C
B3: Compound No. 52 (peptide)
peptide: Ac-[dR][Pen]QTWQ[Pen][AEF][2Nal][Thp]K(Butyryl)N[Thp]-NH2
modifications: disulfide 2-7
SMILES: CCCC(=O)NCCCC[C@H](NC(=O)C1(NC(=O)[C@H](Cc2ccc3ccccc3c2)NC(=O)[C@H](Cc2ccc(OCCN)cc2)NC(=O)[C@H]2NC(=O)[C@H](CCC(N)=O)NC(=O)[C@H](Cc3c[nH]c4ccccc34)NC(=O)[C@H]([C@@H](C)O)NC(=O)[C@H](CCC(N)=O)NC(=O)[C@@H](NC(=O)[C@@H](CCCNC(=N)N)NC(C)=O)C(C)(C)SSC2(C)C)CCOCC1)C(=O)N[C@@H](CC(N)=O)C(=O)NC1(C(N)=O)CCOCC1
B4: Compound No. 53 (peptide)
peptide: Ac-[dR][Pen]QTWQ[Pen][AEF][2Nal][Thp]K(Ac)NF-NH2
modifications: disulfide 2-7
SMILES: CC(=O)NCCCC[C@H](NC(=O)C1(NC(=O)[C@H](Cc2ccc3ccccc3c2)NC(=O)[C@H](Cc2ccc(OCCN)cc2)NC(=O)[C@H]2NC(=O)[C@H](CCC(N)=O)NC(=O)[C@H](Cc3c[nH]c4ccccc34)NC(=O)[C@H]([C@@H](C)O)NC(=O)[C@H](CCC(N)=O)NC(=O)[C@@H](NC(=O)[C@@H](CCCNC(=N)N)NC(C)=O)C(C)(C)SSC2(C)C)CCOCC1)C(=O)N[C@@H](CC(N)=O)C(=O)N[C@@H](Cc1ccccc1)C(N)=O
B5: Compound No. 54 (peptide)
peptide: Ac-[dR][Pen]QTWQ[Pen][AEF][2Nal][Thp]K(Propionyl)NF-NH2
modifications: disulfide 2-7
SMILES: CCC(=O)NCCCC[C@H](NC(=O)C1(NC(=O)[C@H](Cc2ccc3ccccc3c2)NC(=O)[C@H](Cc2ccc(OCCN)cc2)NC(=O)[C@H]2NC(=O)[C@H](CCC(N)=O)NC(=O)[C@H](Cc3c[nH]c4ccccc34)NC(=O)[C@H]([C@@H](C)O)NC(=O)[C@H](CCC(N)=O)NC(=O)[C@@H](NC(=O)[C@@H](CCCNC(=N)N)NC(C)=O)C(C)(C)SSC2(C)C)CCOCC1)C(=O)N[C@@H](CC(N)=O)C(=O)N[C@@H](Cc1ccccc1)C(N)=O
B6: Compound No. 55 (peptide)
peptide: Ac-[dR][Pen]QTWQ[Pen][AEF][2Nal][Thp]K(Cyclopropanecarbonyl)NF-NH2
modifications: disulfide 2-7
SMILES: CC(=O)N[C@H](CCCNC(=N)N)C(=O)N[C@@H]1C(=O)N[C@@H](CCC(N)=O)C(=O)N[C@@H]([C@@H](C)O)C(=O)N[C@@H](Cc2c[nH]c3ccccc23)C(=O)N[C@@H](CCC(N)=O)C(=O)N[C@H](C(=O)N[C@@H](Cc2ccc(OCCN)cc2)C(=O)N[C@@H](Cc2ccc3ccccc3c2)C(=O)NC2(C(=O)N[C@@H](CCCCNC(=O)C3CC3)C(=O)N[C@@H](CC(N)=O)C(=O)N[C@@H](Cc3ccccc3)C(N)=O)CCOCC2)C(C)(C)SSC1(C)C
B7: Compound No. 56 (peptide)
peptide: Ac-[dR][Pen]QTWQ[Pen][AEF][2Nal][Thp]K(Ac)N[Thp]-NH2
modifications: disulfide 2-7
SMILES: CC(=O)NCCCC[C@H](NC(=O)C1(NC(=O)[C@H](Cc2ccc3ccccc3c2)NC(=O)[C@H](Cc2ccc(OCCN)cc2)NC(=O)[C@H]2NC(=O)[C@H](CCC(N)=O)NC(=O)[C@H](Cc3c[nH]c4ccccc34)NC(=O)[C@H]([C@@H](C)O)NC(=O)[C@H](CCC(N)=O)NC(=O)[C@@H](NC(=O)[C@@H](CCCNC(=N)N)NC(C)=O)C(C)(C)SSC2(C)C)CCOCC1)C(=O)N[C@@H](CC(N)=O)C(=O)NC1(C(N)=O)CCOCC1
B8: Compound No. 57 (peptide)
peptide: Ac-[dR][Pen]QTWQ[Pen][AEF][2Nal][Thp]K(Propionyl)N[Thp]-NH2
modifications: disulfide 2-7
SMILES: CCC(=O)NCCCC[C@H](NC(=O)C1(NC(=O)[C@H](Cc2ccc3ccccc3c2)NC(=O)[C@H](Cc2ccc(OCCN)cc2)NC(=O)[C@H]2NC(=O)[C@H](CCC(N)=O)NC(=O)[C@H](Cc3c[nH]c4ccccc34)NC(=O)[C@H]([C@@H](C)O)NC(=O)[C@H](CCC(N)=O)NC(=O)[C@@H](NC(=O)[C@@H](CCCNC(=N)N)NC(C)=O)C(C)(C)SSC2(C)C)CCOCC1)C(=O)N[C@@H](CC(N)=O)C(=O)NC1(C(N)=O)CCOCC1
B9: Compound No. 58 (peptide)
peptide: Ac-[dR][Pen]QTWQ[Pen][AEF][2Nal][Thp]K(Butyryl)NF-NH2
modifications: disulfide 2-7
SMILES: CCCC(=O)NCCCC[C@H](NC(=O)C1(NC(=O)[C@H](Cc2ccc3ccccc3c2)NC(=O)[C@H](Cc2ccc(OCCN)cc2)NC(=O)[C@H]2NC(=O)[C@H](CCC(N)=O)NC(=O)[C@H](Cc3c[nH]c4ccccc34)NC(=O)[C@H]([C@@H](C)O)NC(=O)[C@H](CCC(N)=O)NC(=O)[C@@H](NC(=O)[C@@H](CCCNC(=N)N)NC(C)=O)C(C)(C)SSC2(C)C)CCOCC1)C(=O)N[C@@H](CC(N)=O)C(=O)N[C@@H](Cc1ccccc1)C(N)=O
B10: Compound No. 59 (peptide)
peptide: Ac-[dR][Pen]QTWQ[Pen][AEF][2Nal][Thp]K(Hexanoyl)NF-NH2
modifications: disulfide 2-7
SMILES: CCCCCC(=O)NCCCC[C@H](NC(=O)C1(NC(=O)[C@H](Cc2ccc3ccccc3c2)NC(=O)[C@H](Cc2ccc(OCCN)cc2)NC(=O)[C@H]2NC(=O)[C@H](CCC(N)=O)NC(=O)[C@H](Cc3c[nH]c4ccccc34)NC(=O)[C@H]([C@@H](C)O)NC(=O)[C@H](CCC(N)=O)NC(=O)[C@@H](NC(=O)[C@@H](CCCNC(=N)N)NC(C)=O)C(C)(C)SSC2(C)C)CCOCC1)C(=O)N[C@@H](CC(N)=O)C(=O)N[C@@H](Cc1ccccc1)C(N)=O

Target: T1, human IL-23R (interleukin-23 receptor)
Assay: cell-based or functional assay

Row | Binder | PBMC pSTAT3 IC50 (nM)
1 | B1 | 220
2 | Ac-[dR][Abu]QTWQC[Phe(3,4-diOMe)][2Nal][Thp][αMeE]N[αMeF]-NH2 (thioether 2-7) [Compound No. 41] | 2500
3 | Ac-[dR][Abu]QTWQC[AEF][2Nal][Ac6c]EN[Thp]-NH2 (thioether 2-7) [Compound No. 42] | 6.7
4 | Ac-[dR][Abu]QTWQC[AEF][2Nal][Thp][αMeE]NF[Aib][αMeK]-NH2 (thioether 2-7) [Compound No. 43] | 8.2
5 | Ac-[dR][Abu]QTWQC[AEF][2Nal][Thp][αMeE]N[αMeY]-NH2 (thioether 2-7) [Compound No. 44] | 9.3
6 | Ac-[dR][Abu]QTWQC[AEF][2Nal][Ac6c][αMeE]NF[Aib][αMeK]-NH2 (thioether 2-7) [Compound No. 45] | 17
7 | Ac-[dR][Abu]QTWQC[AEF][2Nal][Thp][αMeE]N[Phe(3,5-F2)]-NH2 (thioether 2-7) [Compound No. 46] | 48
8 | [dR][Abu]QTWQC[Phe(4-(2-(Boc)aminoethoxy))][2Nal][Thp]EN[Thp]-NH2 (thioether 2-7) [Compound No. 47] | 5.3
9 | Propyl-[dR][Abu]QTWQ[αMeC][AEF][2Nal][Thp]ENF-NH2 (thioether 2-7) [Compound No. 48] | 7.2
10 | Ac-[dR][Abu]QTWQC[AEF][2Nal][Thp][Aib]NF-NH2 (thioether 2-7) [Compound No. 49] | 18
11 | Ac-[dR][Abu]QTWQC[AEF][2Nal][Thp][Ac6c]N[αMeF]-NH2 (thioether 2-7) [Compound No. 50] | 14
12 | B2 | 27
13 | B3 | 16
14 | B4 | 29
15 | B5 | 47
16 | B6 | 25
17 | B7 | 4.9
18 | B8 | 18
19 | B9 | 35
20 | B10 | 67
